{"source": "paper PMC10060833", "target": "recombinant HAdV55 fiber protein (human adenovirus type 55 (HAdV55))", "assay": "SDS-PAGE without heating or reducing agent; purified recombinant fiber in loading buffer with 10% SDS, without beta-ME, kept at room temperature for 5 min (\"Non-reducing\")"}
{"substance": "recombinant HAdV55 fiber protein (natural protein)", "values": [{"measurement": "stoichiometry N", "value": 3}]}
